Measured values: US20240245805A1 (Orna Therapeutics, Inc., priority 2020, published 2024)

B1: Goat torovirus (nucleic acid, listed as Torovirus sp.)
chain: GTACTTACAAGCGGGTTAAACCGCCCTCCGGAACGGTTACAACCCCCTCCCGAACGTGCGCTTGACGTGACTGGTTCTCAGTCTGGCTTTCTGAGAAATACTCCAGGGTTGTATCCCACCATCTTGACCTCTGGTCATTTTGGTAACACCATAACCAAACAAACTCTACACACCTAACCCACCTCCAGCTTGCTGCAGGCCTTTTGGACTAAACGGGTTTAGGTGTTTTGTGACCAACTCGTCTACCCACCTCCAGTTTTACTGCAGGCCTTTTTGGACTAAACGGCTTTAGACTTTTGTGGTTAGTTTTTAACTACCCACTGTTTAGCCGCCAACCTGATTTTCATTGTTGTAAAATTTTGTGTTTATACACTATTTTCATACGGTTGGCAGTTTGTTTGGTTGTTTGCACAGTTTTTGTTGATACCAATTTTTACTGTGCTTTTAGTGTATTCTGCTAAGGCTGTATTTTACATACTTAGTTTGGTTGAAGCAATTTTTACAACATTTATATTGTTTTTGATTTCTAAGGTAAAGAGTCTTAGGAAACACCATAGACGCCATTCTTGTGGTGTCTAGTTCCAACTAATCTGGCAAACAAGTACCAAGTCATTGACTCACTTTGGAGTGAGACTTACGAGTACCAATTTGCCTATTTCGGACATCCATATAAAG
modifications: lipid formulation
B2: Farmington virus (nucleic acid)
chain: ACGACGCATAAGCAGAGAAACATAAGAGACTATGTTCATAGTCACCCTGTATTCATTATTGACTTTTATGACCTATTATTAGACCCTTCACGGGTAAATCCTTCTCCTTGCAGTTCTCGCCAAGTACCTCCAAAGTCAGAACG
modifications: lipid formulation; source: /note="Description of Unknown: Farmington virus sequence"
B3: Enterovirus AN12 (nucleic acid, listed as Enterovirus sp.)
chain: TACCGCTGCACCAGTGAGCTGGTACGCTAGTACCTTCGCACGGAGTAGATGGCATCCCCCACCCCGTAACTTAGAAGCAAAGTACACATCTGGCCAATAGTGGCGCTGCATCCAGCCGCGCAACGGTCAAGCACTTCTGTTTCCCCGGTCCGCAAGGGTCGTTATCCGCCCAGTCCACTACGGAAAGCCTACTAACCATTGAAGCTATCGAGAGGTTGCGCTCGGCCACGACCCCGGTGGTAGCTCTGAGTGATGGGGCTCGCAAACACCCCCGTGGTAACACGGATGCTTGCCCGCGCGTGCACTCGGGTTCAGCCTATTGGTTGTTCACCTCAACATAGTGTAAATGGCCAAGAGCCTACTGTGCTGGATTGGTTTTCCTCCGGAGCCGTGAATGCTGCTAATCCCAACCTCCGAGCGTGTGCGCACAATCCAGTGTTGCTACGTCGTAACGCGTAAGTTGGAGGCGGAACAGACTACTTTCGGTACTCCGTGTTTCTTTTGTTTTATTTTGAATTTTATGGTGACAATTGCTGAGATTTGCGAATTAGCGACTCTACCGCTGAACATTGCCCTGTACTACCTAATCGCATTTCACAAAACCTCAGAGATACCAAGCTCTTACATTGATCTGCTTGTTTTCCTGAATCTCAAATATAAATTGGAACAAGCAAA
modifications: lipid formulation
B4: Human rhinovirus 1 (nucleic acid, listed as Rhinovirus sp.)
DNA: TTAAAACTGGGTGTGGGTTGTTCCCACCCACACCACCCAATGGGTGTTGTACTCTGTTATTCCGGTAACTTTGTACGCCAGTTTTTCCCTCCCCTCCCCATCCTTTTACGTAACTTAGAAGTTTTAAATACAAGACCAATAGTAGGCAACTCTCCAGGTTGTCTAAGGTCAAGCACTTCTGTTTCCCCGGTTGATGTTGATATGCTCCAACAGGGCAAAAACAACAGATACCGTTATCCGCAAAGTGCCTACACAGAGCTTAGTAGGATTCTGAAAGATCTTTGGTTGGTCGTTCAGCTGCATACCCAGCAGTAGACCTTGCAGATGAGGCTGGACATTCCCCACTGGTAACAGTGGTCCAGCCTGCGTGGCTGCCTGCGCACCTCTCATGAGGTGTGAAGCCAAAGATCGGACAGGGTGTGAAGAGCCGCGTGTGCTCACTTTGAGTCCTCCGGCCCCTGAATGCGGCTAACCTTAAACCTGCAGCCATGGCTCATAAGCCAATGAGTTTATGGTCGTAACGAGTAATTGCGGGATGGGACCGACTACTTTGGGTGTCCGTGTTTCACTTTTTCCTTTATTAATTGCTTATGGTGACAATATATATATTGATATATATTGGCATC
B5: Hubei zhaovirus-like virus 1 (nucleic acid)
DNA: GTGCAGGATGGCCTTTCCCATCTTAAGTGGTTTGTAGGATTTCGTGGGTCCATACCCCCCGATTTCTTGGTACGTATTCCATGCACGGAGAATACGACCAAAACTCTTATTTCAAAAAATATTATTTTTTACTCTTGTGGGCTGAGTGCGACCCACCAGTTCCAGCTTAGCAACCTGGAAGTTGTTGGAGATTTATGGAACCAAATTACACATGCGTGGAGTGCCGCCACTCCGTATCTGTTCACTCATTACGCGATTAAGTTCTGCGACGAGACGAGCGAA
modifications: source: /note="Description of Unknown: Hubei zhaovirus-like virus 1 sequence"
B6: Poecivirus BCCH-449 (nucleic acid, listed as Poecivirus sp.)
DNA: ACTACACAATCGCAACACGCGCAAGTTTGTAGTTTGATTGGCGTGCAAATGTCAAATCAAGCATATAACACAATTTGGTGGCTGTTGGTGTTTGTTATAGGAATTTTGGTTGTGTTGAAATTGTGGATGTGTAGGAAATATGCACAATTACGTCAGCGTCAGGAGTTTTATAACCTGGCGCAACACCAAAATGGTCTTCGCGCTTTAACATCACCAGCGAGGTGTAAACAAATTGAAGTTGAATTAGATCGTGTATAGGCCAGGGAACCATCCCTCCCAACGCCACATCTTGTGGGGAAGTTGGGATAATGGTGGGTCTATATGAATTGGTCTGTAGACCCACAGTGAAGAGTGAATAGTATGCTTGCGGTTCCATTTGTTAATGGTCTAGCATGGGTGGGGGCGGCAACCCCGTGAGGGGTTCCCCACTGGCCAAAAGCCCAGGGGTTAGTCATTTCAACCAAGGAAGCTGGTAACCTGGTGACCTGAACTTGAGTGGTGAGACCCCCTTGCTAGAGTGTGTAAACCGATTGTAAGCATTTTGTTTGCTTAGTATCTGTGGTATAAGCAGTCAATTTTGTATAGGCTCAAGGCTGTGGTAGTTAGTAGATGCCCGGAAGGTTATTACTGATCCGGGGACCGTGACTATACATTAGGTAAACCGGTTTAAAAACC
modifications: lipid formulation
B7: Guereza hepacivirus (nucleic acid, listed as Hepacivirus sp.)
chain: CACTCAATACTACACTCCGCATTTGGGGAGAAGCGCTGGCGTTCGCGGAACCGCGTTAACCATACGCGTAGTACGAGTGCGACAGACCCCGGTGCTACTGGTGGTAGCGAGACACGAGCCGAAGTCTGTGGGGGGAACTCCACTTAGAGGGCATGCCCGGGCGTAGGCTTCTGAGTTGGGATGGGCCCCAACTTGGCCCCTGAGTGGGGGGGTGTTACGACCTGATAGGGTGCGGGCTGGCGCCTACCACTTTCCAGTCGTACATGAGTC
modifications: lipid formulation
B8: Human TMEV-like cardiovirus (nucleic acid, listed as Cardiovirus sp.)
DNA: TCCGACGTGGTTGGAATTAACATCTTTTCCGACGAAAGTGCTATTATGCCTCCCCGATTGTGTGATGCTTTCTGCCCTGCTGGGCGGAGCGTCCTCGGGTTGAGAAACCTTGAATCTTTTCCTTTGGAGCCTTGGCTCCCCCGGTCTAAGCCGCTTGGAATATGACAGGGTTATTTTCCAAACTCTTTATTTCTACTTTCATGGGTTCTATCCATGAAAAGGGTATGTGTTGCCCCTTCCTTCTTTGGAGAATCTGCGCGGCGGTCTTTCCGTCTCTCAACAGGCGTGGATGCAACATGCCGGAAACGGTGAAGAAAACAGTTTTCTGTGGAAATTTAGAGTGGACATCGAAACAGCTGTAGCGACCTCACAGTAGCAGCGGATTCCCCTCTTGGCGACAAGAGCCTCTGCGGCCAAAAGCCCCGTGGATAAGATCCACTGCTGTGAGCGGTGCAACCCCAGCACCCTGGTTCGATGGCCATTCTCTATGGAACCAGAAAATGGTTTTCTCAAGCCCTCCGGTAGAGAAGCCAAGAATGTCCTGAAGGTACCCCGCGCGCGGGATCTGATCAGGAGACCAATTGGCAGTGCTTTACGCTGCCACTTTGGTTTAAAAACTGTCACAGCTTCTCCAAACCAAGTGGTCTTGGTTTTCCAATTTTGTTGACTGACAAT
B9: Grapevine associated narnavirus-1 (nucleic acid, listed as Narnavirus sp.)
chain: GCCCGGGGGGTGCAGTCCTGTGAAAGGGTCTGCACCATACTATATATGTATATGATTACATCCCAAAAGGCGACTTCGTTCAGGTTTTAAATCTGACGTAGGTCCAGTAAATAAGCATGTCAAAACATGTAAGTTTATCCTGTAATCTACTCTCATAAGATGAGATAAGATGATATTGCAGTTCCCATGTAAATAAATCCATTATGAATTCATTCATATAAGGTAGAAGTGGTAACTATGGTTGAAACATTAATATAAAACGGTCATTTTGCATGAACGTCATTAAGGAACTGGCATACCAATGTCTATTTAGTGACTATGATATTTAGAGTATCCCTTATATTAATTAACAATTATTCCTTTTAGCATATCATCCGACAACAAATTTTAAAAGAAGAAATATTACTCATTAAAA
modifications: lipid formulation
B10: Feline infectious peritonitis virus (nucleic acid)
chain: ACTTTTAAAGTAAAGTGAGTGTAGCGTGGCTATAACTCTTCTTTTACTTTAACTAGCCTTGTGCTAGATTTGTCTTCGGACACCAACTCGAACTAAACGAAATATTTGTCTCTCTATGAAACCATAGAAGACAAGCGTTGATTATTTCACCAGTTTGGCAATCACTCCTAGGAACGGGGTTGAGAGAACGGCGCACCAGGGTTCCGTCCCTGTTTGGTAAGTCGTCTAGTATTAGCTGCGGCGGTTCCGCCCGTCGTAGTTGGGTAGACCGGGTTCCGTCCTGTGATCTCCCTCGCCGGCCGCCAGGAGA
modifications: lipid formulation; source: /note="Description of Unknown: Feline infectious peritonitis virus sequence"

Tested on: HEK293 cells
Assay type: cell-based, human
Settings: circular RNA encoding Gluc with the listed IRES (UTR truncated to 675 nt) transfected into HEK293 cells; supernatant after 24 hours

| Molecule | Expression (luminescence from secreted Gluc protein) |
| --- | --- |
| B1 | 1.19E+05 |
| B2 | 1.22E+05 |
| B3 | 3.87E+06 |
| B4 | 7.40E+07 |
| B5 | 1.03E+05 |
| B6 | 3.43E+05 |
| B7 | 1.38E+05 |
| B8 | 4.48E+07 |
| B9 | 1.30E+05 |
| B10 | 1.35E+05 |
